Test results reported in paper PMC5961129.

Key:
PUF-10R = PUF-10R (human, engineered, UniProt Q14671 828-955+992-1142+1028-1176, internal_change); experiment: FP
PUF-9R [1] = biological target: T1, PUF-9R (human, engineered, UniProt Q14671 828-955+1028-1142+1028-1176, internal_change); experiment: crystal structure
PUF-12R = PUF-12R (human, engineered, UniProt Q14671 828-1027+992-1142+1028-1176, internal_change); experiment: FP
[2] = biological target: PUF-8R (Pumilio1 PUF domain, wild type) (human, UniProt Q14671 828-1176); experiment: FP
PUF-8R H972Y = PUF-8R H972Y (human, UniProt Q14671 828-1176, H972Y); experiment: FP
PUF-8R N1080Y = PUF-8R N1080Y (human, UniProt Q14671 828-1176, N1080Y); experiment: FP
PUF-8R R1008Y = PUF-8R R1008Y (human, UniProt Q14671 828-1176, R1008Y); experiment: FP
PUF-9R [3] = biological target: T1, PUF-9R; experiment: FP

With AAUUGUUGUAAUAUUC (ssRNA) [10nt-RNA] the binding signal (PUF-10R) was ~7 fold Ka vs PUF-8R:RNA-8nt.

UGUUGUAUA (ssRNA) [RNA-9nt (crystal)]: binds (PUF-9R [1]).

AAUUGUUGUAAUAUAUUC (ssRNA) [12nt-RNA]: binds (PUF-12R).

With AAUUGUAUAUAUUC (ssRNA) [8nt-RNA] the binding result [2] was “binds”, the binding result (PUF-8R H972Y) was “binds” and the binding signal (PUF-8R N1080Y) was > 8 fold Ka vs PUF-8R R1008N. AAUUGUAUAUAUUC (ssRNA) [8nt-RNA]: binds (PUF-8R R1008Y).

In the case of AAUUGUUGUAUAUUC (ssRNA) [9nt-RNA], the binding signal (PUF-9R [3]) is reported as ~12 fold Ka vs PUF-8R:RNA-8nt.
